Measurements published in ChEMBL document CHEMBL2311350, “Discovery of a novel phenylethyl benzamide glucokinase activator for the treatment of type 2 diabetes mellitus” (Bioorg Med Chem Lett, 2013).

Biological target: Glucokinase (Homo sapiens)
Experiment: Induction of human pancreatic glucokinase activity assessed as maximal reaction rate at 5 mM glucose concentration

B1: Hexokinase-4 (Homo sapiens), P35557 (protein)
chain: MLDDRARMEAAKKEKVEQILAEFQLQEEDLKKVMRRMQKEMDRGLRLETHEEASVKMLPTYVRSTPEGSEVGDFLSLDLGGTNFRVMLVKVGEGEEGQWSVKTKHQMYSIPEDAMTGTAEMLFDYISECISDFLDKHQMKHKKLPLGFTFSFPVRHEDIDKGILLNWTKGFKASGAEGNNVVGLLRDAIKRRGDFEMDVVAMVNDTVATMISCYYEDHQCEVGMIVGTGCNACYMEEMQNVELVEGDEGRMCVNTEWGAFGDSGELDEFLLEYDRLVDESSANPGQQLYEKLIGGKYMGELVRLVLLRLVDENLLFHGEASEQLRTRGAFETRFVSQVESDTGDRKQIYNILSTLGLRPSTTDCDIVRRACESVSTRAAHMCSAGLAGVINRMRESRSEDVMRITVGVDGSVYKLHPSFKERFHASVRRLTPSCEITFIESEEGSGRGAALVSAVACKKACMLGQ
- Vmax: 130%
